Assay [1] has as its target T1, rFVIII (Homo sapiens, UniProt P00451). As to the kind of experiment: column format binding assay, rFVIII mass per fraction by sandwich capture ELISA for the light chain. Conditions: for Flow through ng: 10,000 ng rFVIII in 1:10 PPF injected, 5° C.; for ELISA results % total: Table 9, 0.5M CaCl2 fraction. The procedure:
(§1) Immunoassay on rFVIII using a sandwich capture ELISA for the light chain and activity assay using a chromogenic substrate (COATEST Factor VIII kit from diaPharma, Franklin, Ohio) were performed on a BIOMEK® automated liquid handling system from Beckman Instruments (Brea, Calif.). The monoclonal antibody for rFVIII light chain (known as C7F7), the ELISA assay standard (lot A70K019), and the control for the activity assay (lot A70A001 @ 140 IU/mL) were from the Bayer Corporation (Berkeley, Calif.). The standard for the activity assay was at 11.2 IU/mL (Bayer, Clayton, N.C.), calibrated against the MEGA 1 standard, which is a working standard used by American manufacturers for measuring factor VIII activity (21).
(§2) Additional confirmatory binding assay and performance of the discovered binding peptides in terms of total rFVIII and activity recovery was performed in a column chromatographic format on a microbore HPLC. The resins were packed into 0.4×5 cm columns (Thomson, Springfield, Va.) and tested on the MICHROM HPLC system (Michrom BioResources, Auburn, Calif.). The elution program for the trials utilized the following method. The column was pre-equilibrated with equilibration buffer (as above). A 1 mL aliquot of 1:10 PPF followed by 1 mL of rFVIII (10,000 ng) in 1:10 PPF were injected and allowed sufficient time to flow through the column using equilibration buffer. The column was then washed with step elutions of 0.5 M and 1.0 M CaCl2 in equilibration buffer. The column was exposed to equilibration buffer. Remaining protein was eluted with 2% by volume glacial acetic acid in water. Columns were kept at 5° C. during the chromatographic runs. For each 1 mL injection (equilibration buffer, 1:10 PPF and 10,000 ng rFVIII in 1:10 PPF), the chromatographic cycle was run for 45 minutes (injection, flow through, 0.5 M CaCl2, 1.0 M CaCl2, equilibration buffer, 2% acetic acid, equilibration buffer).
(§3) A Gilson FC204 fraction collector at the HPLC outlet collected individual eluates for further analysis. Each collection tube had 100 μL hSA added to it to stabilize the rFVIII. Fractions collected from the 2% acetic acid eluates were neutralized with 2 M Tris, pH 10.5 to bring the pH to neutrality. The fractions were analyzed for total protein by the integration of the absorbance at 280 nm, for rFVIII by immunoassay (sandwich capture ELISA), and for rFVIII activity by a chromogenic substrate assay.
Tables 5 and 6 present the results from the additional confirmatory binding assays using the column format. The chromatography method was run by injecting the samples at a flow rate of 865 μL/min (413 cm/hr). In order to provide a 10 minute residence time of sample in the column the flow was decreased to 17 μL/min (10 cm/hr) upon injection.
Following the incubation, the flow was set at 865 μL/min (413 cm/hr) for the step clutions of 0.5 M CaCl2, 1.0 M CaCl2, and 2% acetic acid. Results are expressed in terms of the total mass of rFVIII in each fraction, as determined by the sandwich capture ELISA assay for the rFVIII light chain. […] A control using a non-binding peptide sequence (IGF) is also shown for comparison--in this case, 95% of the rFVIII loaded to the column was collected in the flow through fraction. Additional controls with no
Background: An ELISA detects its analyte on a solid surface through an enzyme-linked reagent.

Assay [2] addresses T1, rFVIII. As to the kind of experiment: rFVIII activity recovery from peptide columns by chromogenic substrate assay (COATEST). The class given is biochemical. Conditions: for 0.5M CaCl2 % total: activity recovery; for Flow through IU: rFVIII activity in fraction; for Activity results % total: Table 9, 0.5M CaCl2 fraction. As to the method:
as §1, §2, §3
Tables 7 and 8 list the sequences for which activity recovery was determined by a chromogenic substrate assay (COASTEST kit, diaPharma, Franklin, Ohio). Chromatographc conditions are the same as described above for the results from Tables 5 and 6. It can be

Assay [3] concerns the target T1, rFVIII. As to the kind of experiment: confirmatory binding assay in filtration plate format using 14C-rFVIII. Conditions: for 0.5M CaCl2 % total / 2% acetic acid % total / 2% acetic acid dpm / 0.5M CaCl2 dpm: 5 mg beads; for 0.5M CaCl2 dpm: 5° C.; for beads % total / beads dpm: remaining on beads after washes. The procedure:
Confirmatory binding assays were performed in a filtration plate format using individual peptide sequences synthesized directly onto the TOYOPEARL AF amino 650 M resin, at a final substitution density of 0.1 mmole/g resin. A slurry of each individual peptide sequence was prepared using deionized water. A 100 μL volume of beads (corresponding to 5 mg) was loaded into each well of the filtration plate (MULTISCREEN Assay System, Millipore, Bedford, Mass.), in triplicate for each peptide sequence. Beads were washed with 20% ethanol and incubated overnight with equilibration buffer (20 mM imidazole, 10 mM
CaCl2, 0.105 M NaCl, pH 6.9). A 100 μL aliquot of ^14 C-rFVIII diluted in neat PPF to a final concentration of 20-30 nM was loaded into each well and incubated for 1 hour at 5° C. Filtrate (unbound ^14 C-rFVIII) was collected into a microtiter plate and transferred to liquid scintillation vials for dpm counting. Beads were washed sequentially with: 100 μL of equilibration buffer for 15 minutes, 200 μL of 0.5 M CaCl2 (in equilibration buffer), 200 μL of 1.0 M CaCl2 (in equilibration buffer), and 200 uL of 2% by volume glacial acetic acid in water, for 1 hour each at 5° C. Scintillation counting on the unbound ^14 C-rFVIII (plus equilibration buffer wash), salt and acid washes, as well as on the beads was then performed and the overall mass balance calculated.
Beads presenting the appropriate peptide sequence on the surface were placed in the filtration plate wells and incubated sequentially with equilibration buffer, ^14 C-rFVIII in PPF, equilibration buffer, 0.5 M CaCl2 wash, 1.0 M CaCl2 wash and 2% acetic acid wash. After each incubation, filtrate was collected in microtiter plates, and dpm counted on each
In Table 3, the ^14 C-rFVIII was loaded at 20 nM (in PPF) and the radiolabeling yield was at 3.0×10^15 dpm/mole. In Table 4, the ^14 C-rFVIII was loaded at 30 nM (in PPF) and the radiolabeling yield was at 5.0×10^15 dpm/mole.

Where [4] appears, read: Table 3, 14C-rFVIII 20 nM in PPF.
Setting [5] is: Table 3, 14C-rFVIII 20 nM in PPF, 3.0 × 10^15 DPM/mole.
Where [6] appears, read: Table 4, 14C-rFVIII 30 nM in PPF.

The values below come from patent publication US6191256A, “Recombinant factor VIII binding peptides” (Bayer Corporation, priority 1998, dated 2001).

T1 sequence (P00451 20-2351): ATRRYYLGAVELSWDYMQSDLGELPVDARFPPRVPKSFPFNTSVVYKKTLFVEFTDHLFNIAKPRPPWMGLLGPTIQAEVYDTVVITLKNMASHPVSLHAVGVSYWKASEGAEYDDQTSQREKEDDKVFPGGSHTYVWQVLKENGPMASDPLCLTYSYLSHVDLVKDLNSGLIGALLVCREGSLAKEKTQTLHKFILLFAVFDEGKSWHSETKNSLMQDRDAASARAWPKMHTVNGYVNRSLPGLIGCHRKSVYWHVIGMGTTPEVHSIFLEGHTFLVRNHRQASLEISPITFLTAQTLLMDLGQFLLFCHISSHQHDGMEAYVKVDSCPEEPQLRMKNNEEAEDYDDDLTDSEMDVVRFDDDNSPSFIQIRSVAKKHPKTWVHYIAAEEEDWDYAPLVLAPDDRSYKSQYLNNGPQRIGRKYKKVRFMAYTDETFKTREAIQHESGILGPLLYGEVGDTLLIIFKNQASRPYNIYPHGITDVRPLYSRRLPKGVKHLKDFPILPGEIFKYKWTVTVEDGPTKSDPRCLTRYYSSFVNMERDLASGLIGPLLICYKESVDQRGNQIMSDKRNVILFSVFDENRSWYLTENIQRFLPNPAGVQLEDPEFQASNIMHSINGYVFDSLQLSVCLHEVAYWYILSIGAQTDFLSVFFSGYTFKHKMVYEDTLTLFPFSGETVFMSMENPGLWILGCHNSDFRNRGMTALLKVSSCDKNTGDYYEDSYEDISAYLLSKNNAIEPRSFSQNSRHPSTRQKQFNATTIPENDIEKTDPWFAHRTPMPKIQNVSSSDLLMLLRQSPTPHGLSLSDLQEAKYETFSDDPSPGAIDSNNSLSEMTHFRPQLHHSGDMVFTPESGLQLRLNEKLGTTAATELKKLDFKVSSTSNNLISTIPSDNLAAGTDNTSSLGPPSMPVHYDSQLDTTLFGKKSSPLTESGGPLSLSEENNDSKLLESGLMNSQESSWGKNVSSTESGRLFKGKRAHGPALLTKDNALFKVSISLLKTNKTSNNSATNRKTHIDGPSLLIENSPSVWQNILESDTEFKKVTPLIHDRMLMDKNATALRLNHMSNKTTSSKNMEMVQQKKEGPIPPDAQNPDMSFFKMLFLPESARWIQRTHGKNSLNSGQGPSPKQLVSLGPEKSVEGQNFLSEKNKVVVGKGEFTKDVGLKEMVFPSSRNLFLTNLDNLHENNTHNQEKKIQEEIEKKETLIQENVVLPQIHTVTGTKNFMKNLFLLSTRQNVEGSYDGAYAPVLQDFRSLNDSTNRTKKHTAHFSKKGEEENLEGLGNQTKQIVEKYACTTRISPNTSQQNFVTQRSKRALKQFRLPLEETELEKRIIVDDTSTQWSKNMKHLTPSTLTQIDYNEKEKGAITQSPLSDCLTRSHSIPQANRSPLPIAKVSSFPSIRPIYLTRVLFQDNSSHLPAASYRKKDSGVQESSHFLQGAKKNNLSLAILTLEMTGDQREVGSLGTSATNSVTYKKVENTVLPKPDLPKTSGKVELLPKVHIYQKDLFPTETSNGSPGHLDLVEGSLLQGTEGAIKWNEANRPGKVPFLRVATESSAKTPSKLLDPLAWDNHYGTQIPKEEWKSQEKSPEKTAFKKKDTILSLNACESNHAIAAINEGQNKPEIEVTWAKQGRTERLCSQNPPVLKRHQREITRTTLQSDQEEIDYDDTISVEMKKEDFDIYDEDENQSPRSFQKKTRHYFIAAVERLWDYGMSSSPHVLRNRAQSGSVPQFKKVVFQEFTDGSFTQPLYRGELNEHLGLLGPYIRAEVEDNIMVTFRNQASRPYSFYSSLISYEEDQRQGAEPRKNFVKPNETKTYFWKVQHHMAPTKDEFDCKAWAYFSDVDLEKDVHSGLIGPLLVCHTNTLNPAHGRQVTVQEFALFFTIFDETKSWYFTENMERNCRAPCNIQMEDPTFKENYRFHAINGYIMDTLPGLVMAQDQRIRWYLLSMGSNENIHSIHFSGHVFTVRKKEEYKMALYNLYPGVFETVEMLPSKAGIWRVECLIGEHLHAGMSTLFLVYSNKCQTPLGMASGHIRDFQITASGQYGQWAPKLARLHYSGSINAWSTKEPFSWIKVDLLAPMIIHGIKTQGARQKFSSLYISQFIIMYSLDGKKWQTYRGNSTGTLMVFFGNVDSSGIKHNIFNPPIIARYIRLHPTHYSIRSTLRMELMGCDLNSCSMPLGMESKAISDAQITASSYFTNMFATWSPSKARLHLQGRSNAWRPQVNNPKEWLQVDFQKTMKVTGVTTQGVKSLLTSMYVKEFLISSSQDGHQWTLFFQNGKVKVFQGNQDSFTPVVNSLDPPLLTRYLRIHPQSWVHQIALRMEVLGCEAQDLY
T1 sequence (P00451 1668-2351 limits assumed): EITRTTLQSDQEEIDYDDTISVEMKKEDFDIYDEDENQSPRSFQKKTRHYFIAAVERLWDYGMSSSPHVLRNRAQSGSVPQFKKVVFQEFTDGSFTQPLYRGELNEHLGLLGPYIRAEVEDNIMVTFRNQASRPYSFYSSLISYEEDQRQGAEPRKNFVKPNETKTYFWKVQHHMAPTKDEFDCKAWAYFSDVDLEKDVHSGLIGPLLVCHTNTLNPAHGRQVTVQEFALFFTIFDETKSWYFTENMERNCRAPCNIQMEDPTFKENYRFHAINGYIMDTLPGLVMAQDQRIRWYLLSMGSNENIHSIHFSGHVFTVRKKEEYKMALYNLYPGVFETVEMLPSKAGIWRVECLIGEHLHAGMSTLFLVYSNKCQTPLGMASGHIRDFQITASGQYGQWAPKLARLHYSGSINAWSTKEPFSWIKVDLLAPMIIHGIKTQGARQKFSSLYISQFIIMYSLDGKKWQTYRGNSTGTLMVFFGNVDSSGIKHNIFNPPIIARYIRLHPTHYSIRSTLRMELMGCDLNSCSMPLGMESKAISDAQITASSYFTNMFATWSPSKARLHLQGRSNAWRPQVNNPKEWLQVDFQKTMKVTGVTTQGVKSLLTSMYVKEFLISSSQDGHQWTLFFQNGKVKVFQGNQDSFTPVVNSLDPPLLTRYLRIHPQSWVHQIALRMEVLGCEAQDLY

For 6 (HYWFYK) [compound 6], in assay [1] (Table 5), the “0.5M CaCl2 ng” value came out at 5658 ng, the “0.5M CaCl2 % total” value stood at 90%, the “2% acetic acid % total” value is 3% and the “2% acetic acid ng” value is on record as 160 ng. In addition, in assay [1] (Table 5), the “Flow through % total” value came out at 2%, the Total ng was 6320 ng and the Flow through ng is reported as 105 ng. Moreover, the “ELISA results % total” value in assay [1] came out at 90%. Besides, in assay [2] (Table 7), the “0.5M CaCl2 IU” value amounted to 59.4 IU, the “2% acetic acid % total” value amounted to 1%, the “2% acetic acid IU” value was 0.5 IU and the “Flow through % total” value was 0%. Further, in assay [2] (Table 7), the “Total IU” value is 68.7 IU, the “0.5M CaCl2 % total” value stood at 86% and the “Flow through IU” value is 0.0 IU. For the same substance, in assay [2], the “Activity results % total” value was determined as 86%. In assay [3] (Table 3, 14C-rFVIII 20 nM), this substance showed a Total dpm of 3881 dpm, a beads % total of 5% and a beads dpm of 187 dpm. Further, in assay [3] (setting [4]), the “0.5M CaCl2 % total” value is 83%, the “2% acetic acid % total” value is given as 12% and the “2% acetic acid dpm” value came to 458 dpm. For the same substance, the “0.5M CaCl2 dpm” value in assay [3] (setting [5]) came out at 3236 dpm.
Take 7 (IRFYSE) [compound 7]: in assay [1] (Table 5), the “0.5M CaCl2 ng” value was determined as 5836 ng, the “0.5M CaCl2 % total” value is recorded as 94%, the “2% acetic acid % total” value is on record as 1% and the “2% acetic acid ng” value was 77 ng. In assay [1] (Table 5), the “Flow through % total” value worked out at 4%, the Total ng is recorded as 6225 ng and the Flow through ng was determined as 228 ng. For the same substance, in assay [1], the “ELISA results % total” value was 94%. For the same substance, in assay [2] (Table 7), the “0.5M CaCl2 IU” value turned out to be 40.6 IU, the “2% acetic acid % total” value was determined as 1%, the “2% acetic acid IU” value is recorded as 0.4 IU and the “Flow through % total” value was 0%. Besides, in assay [2] (Table 7), the “Total IU” value is reported as 42.5 IU, the “0.5M CaCl2 % total” value was found to be 96% and the “Flow through IU” value is on record as 0.0 IU. In assay [2], the “Activity results % total” value was 96%. Also, in assay [3] (Table 3, 14C-rFVIII 20 nM), the Total dpm is on record as 3764 dpm, the beads % total is 4% and the beads dpm is 165 dpm. Also, in assay [3] (setting [4]), the “0.5M CaCl2 % total” value is listed as 85%, the “2% acetic acid % total” value was found to be 11% and the “2% acetic acid dpm” value is on record as 415 dpm. Further, the “0.5M CaCl2 dpm” value in assay [3] (setting [5]) is on record as 3184 dpm.
On to 9 (FALPGR) [compound 9], for which, in assay [1] (Table 6), the “0.5M CaCl2 ng” value is listed as 7154 ng, the “0.5M CaCl2 % total” value worked out at 97%, the “2% acetic acid % total” value is reported as 2% and the “2% acetic acid ng” value was 181 ng. In assay [1] (Table 6), the “Flow through % total” value was determined as 0%, the Total ng is 7403 ng and the Flow through ng is 0 ng. Moreover, the “ELISA results % total” value in assay [1] is given as 97%. Moreover, in assay [2] (Table 8), the “0.5M CaCl2 IU” value was 68.9 IU, the “2% acetic acid % total” value was 0%, the “2% acetic acid IU” value was determined as 0.1 IU and the “Flow through % total” value was determined as 0%. Moreover, in assay [2] (Table 8), the “Total IU” value was 70.2 IU, the “0.5M CaCl2 % total” value is given as 98% and the “Flow through IU” value was determined as 0.0 IU. In assay [2], the “Activity results % total” value is recorded as 98%. In assay [3] (Table 4, 14C-rFVIII 30 nM), this substance returned a Total dpm of 3658 dpm, a beads % total of 2% and a beads dpm of 68 dpm. In assay [3] (setting [6]), the “0.5M CaCl2 % total” value is reported as 93%, the “2% acetic acid % total” value came out at 5% and the “2% acetic acid dpm” value came out at 176 dpm. Further, in assay [3] (Table 4, 14C-rFVIII 30 nM in PPF, 5.0 × 10^15 dpm/mole), the “0.5M CaCl2 dpm” value is 3414 dpm.
